# Laboratory results as given in US20040180409.
# System: T1, epitope-tagged (V5) full-length murine TLT-1 (TREM-like transcript-1) expressed in HEK293T cells
# T1 sequence: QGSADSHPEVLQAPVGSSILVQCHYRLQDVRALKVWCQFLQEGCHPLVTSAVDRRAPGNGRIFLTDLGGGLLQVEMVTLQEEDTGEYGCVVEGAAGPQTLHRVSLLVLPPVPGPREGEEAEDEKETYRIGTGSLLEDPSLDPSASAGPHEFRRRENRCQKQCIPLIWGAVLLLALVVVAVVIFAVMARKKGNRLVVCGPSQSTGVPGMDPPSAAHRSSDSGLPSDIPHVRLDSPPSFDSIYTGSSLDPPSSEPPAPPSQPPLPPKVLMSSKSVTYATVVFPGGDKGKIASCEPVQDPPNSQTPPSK
substance,measurement,value
Syk,"tyrosine phosphorylation of TLT-1 (anti-V5 immunoprecipitation, antiphosphotyrosine immunoblot)",TLT-1 is phosphorylated by Src but not Syk
